Test results from US20140356379A1 (CENTRE NATIONAL DE LA RECHERCHE SCIENTIQUE CNRS, published 2014).
Changes are numbered by the printed parent chain.

What was measured:
[1] = target: T1, recombinant human sPLA2-V (human, UniProt P39877 21-138); experiment: indirect ELISA on coated recombinant human sPLA2-V, one-site saturation fit (relative Kd)
T1 construct: The cDNA for the mature enzyme was cloned in frame to an initiator Met codon; also called hGV; human PLA2-V
T1 sequence: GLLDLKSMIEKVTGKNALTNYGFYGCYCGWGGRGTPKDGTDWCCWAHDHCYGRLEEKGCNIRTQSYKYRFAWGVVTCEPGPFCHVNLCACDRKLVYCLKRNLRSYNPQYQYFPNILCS

[2] = target: T1, recombinant human sPLA2-V; experiment: indirect ELISA on coated recombinant human sPLA2-V, anti-mouse IgG-HRP detection, one-site saturation fit
[3] = target: T1, recombinant human sPLA2-V; experiment: indirect ELISA on coated recombinant human sPLA2-V, streptavidin-HRP detection, one-site saturation fit

B1: 19F3 antibody (antibody, V domains shown)
VH: EVQLQLSGADLVKPGASVKLSCTASGFNIKDSYIHWVKQRPEPGLEWIGRIDPANGNTKYDPKFQGKATITADTSSNTAYLQLTSLTSEDTAVYYCARDVVALDYWGQGTTLTVSS
VL: QIVLTQSPAIMSASPGEKVTMTCSASSSVSYMYWYQQKPGSSPRLLIYDTSNLASGVPVRFSGSGSGTSYSLTISRMEAEDAATYYCQQWSSYPLTFGAGTKLELKR
notes: also called mAb #19F3; hybridoma CNCM I-4522
Question: Which Kd [1] does the source give for B1 here?
Answer: The Kd was 0.0842 nM.

Question: What about the Kd [2] of the same binder?
Answer: The Kd was 0.089 nM.

B2: 18G6 antibody (antibody, V domains shown)
VH: QVQLQQSGPELVKPGASVKMSCKASGYTFTDYVITWVKQRTGQGLEWIGEIYPGSGSTYYDEKFKGKATLTADKSSNTAYMQLSSMTSEDSAVYFCARWFPYFDYWGQGTTLTVSS
VL: B1 VL with M21I, T22S, R44K, L45P, L46W, D49R, V59A, R76S, W90Y, S91H
notes: also called mAb #18G6; hybridoma CNCM I-4521
Question: How did the Kd [1] turn out when B2 was run?
Answer: The Kd was 0.305 nM.

Question: And the Kd [2]?
Answer: Its Kd is 0.53 nM.

B3: biotinylated monoclonal antibody #18G6 (antibody, V domains shown)
VH: B2 VH
VL: B1 VL with M21I, T22S, R44K, L45P, L46W, D49R, V59A, R76S, W90Y, S91H
modifications: biotinylated with a Pierce kit (ref. 21435); sites not stated
notes: also called #18G6-Biot; 18G6-Biot
Question: With B3 as the binder, how does the Kd [3] read?
Answer: The Kd was 0.31 nM.

B4: biotinylated monoclonal antibody #19F3 (antibody, V domains shown)
VH: B1 VH
VL: B1 VL
modifications: biotinylated with a Pierce kit (ref. 21435); sites not stated
notes: also called #19F3-Biot; 19F3-Biot
Question: B4 was tested. Which Kd [3] did it give?
Answer: The Kd was 0.0082 nM.
